The values that follow come from publication PMC7545742, “A Toolbox for Site-Specific Labeling of RecQ Helicase With a Single Fluorophore Used in the Single-Molecule Assay”.

The target of one data set is wild-type RecQ helicase (Escherichia coli, UniProt P15043 1-609). Nature of the data set: smFRET; EFRET 0.92 to 0.54; bound dwell time 4.47 +/- 0.23 s; smFRET on DNA with biotinylated strand in reaction chamber; 5 nM RecQ-Cy5 bound 2 min, then washed; reaction buffer composition, pH and temperature not in the material. Conditions: protein: recombinant; label: Cy3 3' of strand 1; internal Cy5 after nt 4 and biotin 3' of strand 2; 3' overhang 10 nt, 16 bp stem; one A:G mismatch (strand 1 nt 8).

Data set [1] deals with T1, RecQ-Cy5 (sortase A ligation of RecQ516-LPETG and Cy5-GGG-HRDC) (Escherichia coli, UniProt P15043 1-516+=LPETGGG+524-609+=VD, E609C;internal_change). Briefly: smFRET; 5 nM RecQ-Cy5, free protein washed off; EFRET 0 to ~0.84; duration 4.65 +/- 0.17 s; HRDC contacts 3' end; smFRET on DNA with biotinylated strand in reaction chamber; 5 nM RecQ-Cy5 bound 2 min, then washed; reaction buffer composition, pH and temperature not in the material. Conditions: protein: recombinant; tags: Cy5-maleimide at C610; label: Cy3 3' of strand 1; biotin 3' of strand 2; 3' overhang 15 nt, 18 bp stem; one A:G mismatch (strand 1 nt 8).

Data set [2] deals with T1, RecQ-Cy5 (sortase A ligation of …). Nature of the data set: smFRET; 5 nM RecQ-Cy5, free protein washed off; EFRET 0 to ~0.5; duration 5.17 +/- 0.82 s; smFRET on DNA with biotinylated strand in reaction chamber; 5 nM RecQ-Cy5 bound 2 min, then washed; reaction buffer composition, pH and temperature not in the material. The conditions noted are these: protein: recombinant; tags: Cy5-maleimide at C610; label: Cy3 3' of strand 1; biotin 3' of strand 2; 3' overhang 10 nt, 18 bp stem; one A:G mismatch (strand 1 nt 8).

Data set [3] has the same target. Briefly: smFRET; RecQ-Cy5, same conditions (5 nM); EFRET 0 to ~0.92; duration 5.19 +/- 0.28 s; HRDC contacts 5' end; smFRET on DNA with biotinylated strand in reaction chamber; 5 nM RecQ-Cy5 bound 2 min, then washed; reaction buffer composition, pH and temperature not in the material. The conditions noted are these: protein: recombinant; tags: Cy5-maleimide at C610; label: Cy3 5' of strand 1; biotin 5' of strand 2; fork 1:2, 17 bp stem, 5' arm 7 nt (strand 1), 3' arm 10 nt (strand 2).

B1: 16 bp with 3' 10-nt overhang, Cy3/Cy5 (mixed)
DNA 1: AATCCGTAGAGCAGAGGTGTGTGTGG
DNA 2: CTCTGCTCGACGGATT
modifications: none
For the molecule B1, the binding result with wild-type RecQ helicase was “binds”.

B2: 3' 15-nt overhang DNA, Cy3 (mixed)
DNA 1: AATCCGTAGAGCAGAGGTGTGTGTGGTGTTTTT
DNA 2: ACCTCTGCTCGACGGATT
modifications: none
Regarding B2, the binding result in data set [1] is reported as “binds”.

B3: 3' 10-nt overhang DNA, Cy3 (mixed)
DNA 1: AATCCGTAGAGCAGAGGTGTGTGTGGTG
DNA 2: ACCTCTGCTCGACGGATT
modifications: none
In the case of B3, in data set [2], the binding result is on record as “binds”.

B4: fork DNA, 10-nt 3' overhang and 7-nt 5' overhang (mixed)
DNA 1: TTTTTTTATGTATGACAAGGAAGG
DNA 2: CCTTCCTTGTCATACATAAATTTTTTT
modifications: none
For B4, the binding result in data set [3] is reported as “binds”.
